Measurements taken from patent publication US10874712B2, “Methods, compounds and compositions for modulating blood brain barrier integrity and re-myelination” (University Health Network, priority 2015, dated 2020).

Key:
[1] = tested on: mice with passively induced EAE; assay: Adoptive transfer EAE, infiltration of CellVue-labelled cells into spinal cord; assay type: in vivo, mouse; conditions: treated every 3 days; sacrificed day 8 after transfer; vs PBS
Method: Briefly, donor animals were immunized with 100 ug MOG(35-55) and sacrificed at day 10. Splenocytes were harvested and re-stimulated for 3 days with 33 ug/mL MOG(35-55) in the presence of 20 ng/ml rmIL-23. Cells were then labelled with CellVue Maroon and injected into recipient animals treated with RGMc or vehicle as well as PTx on day 0 and day 2. Recipient animals were treated every 3 days and sacrificed on day 8 and spinal cords sectioned for immunofluorescence staining.
Having shown that RGMc levels regulate the extravasation of molecules through the BBB, its role on cellular infiltration was evaluated. To do so, adaptive transfer using spleenocyte cells from MOG treated animals was performed. After collection of splenocyte cells were re-stimulated for 3 days with MOG, stained with Cellvue Maroon and injected into recipient mice treated with pertussis toxin. Following injection, animals received either PBS (Control) or RGMc every 3 days. Eight days after transfer animals were sacrificed and cellular infiltration was monitored using Cellvue-reporter. […] Thus, treatment with RGMc prevented T cell infiltration towards the CNS.

[2] = tested on: MOG(35-55)-pulsed splenocytes of EAE-induced mice; assay: MOG-specific cytokine expression, secretion and proliferation of splenocytes; assay type: in vivo, mouse
Method: Mice were sacrificed on day 10 post-induction and single cells suspension of splenocytes were harvested as described above. Cells (1×10^6) were cultured in 10% FBS RPMI-1640 in the presence of 0 μg/mL, 30 μg/mL, or 100 μg/mL of MOG peptide for 15 h. Cells were then treated with GolgiStop (BD Biosciences) and incubated an additional 3 h and were subsequently stained.
Plates were centrifuged at 1800 rpm for 5 min and the media was then harvested and stored at −80 C until analysis. Cytokine secretion of IL-17a, IL-6, TNF-α, and IFN-γ were assessed using the BD cytometric Bead Array (CBA) (BD Biosciences) according to the manufacturer's guidelines. Splenocyte proliferation was determined using CellTrace™ CFSE Cell Proliferation Kit for flow cytometry (Life Technologies) according to manufacturer's instructions. Briefly, 1×10^6 cells were suspended in warm PBS/0.1% BSA and stained with CFSE solution at a final concentration of 5 μM and incubated at 37° C. for 10 min. The staining was quenched using 5 volumes of ice-cold culture media, incubated for 5 min on ice, centrifuged at 700 rcf for 5 min, washed twice using culture medium, and re-suspended in 10% FBS complete RPMI-1640. Cells were then cultured in 0 μg/mL or 30 μg/mL of MOG(35-55) peptide for 72 h at 37° C., 5% CO2. […] Proliferation was analyzed by flow cytometry following staining in the presence of PI.

[3] = tested on: Claudin 5 in b.End3 cells; assay: Claudin 5 expression in endothelial cells by Western blot; assay type: cell-based, mouse; conditions: incubation with RGM proteins, vs PBS
Method: Cells were pretreated for 6 h with PBS, RGMc, RGMa or RGMc+RGMa. Western blotting was performed on the lysates with Claudin-5 and GAPDH antibodies.
Next, the BBB permeability was assessed by injecting mice with BSA, RGMa, RGMa plus RGMc and subsequently followed by assessment of Texas dye leakage using widefield imaging as an indication of BBB integrity. […] Thus, Claudin 5 expression following RGMa/c treatments of murine-derived brain endothelial cells (b.End3) was studied. B.En3 cells were grown up to 80% confluency and were treated with overnight incubation with RGM proteins.

[4] = tested on: EAE-induced mice; assay: In vivo BBB permeability, fibrinogen extravasation in spinal cord; parameters: species or system mouse; conditions: EAE day 18; treated every 3 days; vs vehicle
Method: To establish the role of RGMc on BBB permeability, 6-8 week old C57Bl/6 female mice induced with EAE and treated with sRGMc or vehicle (n=6 animals per group) were anesthetized 18 days post induction and trans-cardially perfused with 20 mL PBS followed by 20 mL 4% paraformaldehyde in PBS (PFA) (Electron Microscopy Sciences). Spinal cords were cryo-sectioned at 10 μm thickness and stored at −80° C. The sections were stained for Fibrinogen (Innovative Research); CD31 (Invitrogen); and DAPI (Sigma-Aldrich). All images were obtained using a BX61 confocal microscope (Olympus). CellSens software was used for quantification of cell area and pixel intensity. The area (number of pixels) and fluorescent intensity (mean pixel intensity) of the extravasation markers were measured using CellSens software (Olympus). The relative extent of fluorescent extravasation and BBB disruption was then calculated by multiplying the area with the fluorescent intensity.

B1: sRGMc: truncated form of RGMc with the GPI anchor sequence removed, released as a soluble protein (SEQ ID NOs: 1 and 3) (protein, listed as Homo sapiens)
chain: CKILRCNAEYVSSTLSLRGGGSSGALRGGGGGGRGGGVGSGGLCRALRSYALCTRRTARTCRGDLAFHSAVHGIEDLMIQHNCSRQGPTAPPPPRGPALPGAGSGLPAPDPCDYEGRFSRLHGRPPGFLHCASFGDPHVRSFHHHFHTCRVQGAWPLLDNDFLFVQATSSPMALGANATATRKLTIIFKNMQECIDQKVYQAEVDNLPVAFEDGSINGGDRPGGSSLSIQTANPGNHVEIQAAYIGTTIIIRQTAGQLSFSIKVAEDVAMAFSAEQDLQLCVGGCPPSQRLSRSERNRRGAITIDTARRLCKEGLPVEDAYFHSCVFDVLISGDPNFTVAAQAALEDARAFLPDLEKLH
[1]
  accumulation of Cellvue+ cells within the spinal cord: did not show accumulation
[2]; pulsed with MOG for 96 h, ELISA, vs vehicle
  cytokine secretion (IL17, IFN-γ, TNFα, IL6) of MOG-pulsed splenocytes: does not alter
[2]; re-stimulated for 18 hrs, vs control mice
  cytokine profile of splenocytes re-stimulated with MOG(35-55): no apparent effect
[3]
  Claudin 5 levels: did affect Claudin5 levels
[4]
  fibrinogen extravasation: significant decrease
